From the supplement of paper PMC5998384

Columns and labels:
HeLa Kyoto [1] = assay: solubility in G1/S (NP-40 vs SDS abundance) (log2 ratio); higher = more soluble; details: cell cycle stage: G1/S
HeLa Kyoto [2] = assay: melting temperature (median over replicates), in situ; higher = more thermally stable
HeLa Kyoto [3] = assay: solubility change mitosis vs G1/S (difference of NP-40 vs SDS log2 ratios) (log2 ratio difference); higher = more soluble in mitosis
HeLa Kyoto [4] = assay: thermal stability score vs G1/S (z-score of summed log2 fold changes over temperatures); higher = more thermally stable than in G1/S
[5] = cell cycle stage: early G1 (4.5 h after nocodazole release)
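Wherever melting temperature (median over replicates), in situ is given: HeLa Kyoto cells synchronized by double thymidine or nocodazole block, proteins quantified by TMT10plex mass spectrometry, three independent biological replicates.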
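Wherever solubility change mitosis vs G1/S (difference of NP-40 vs SDS log2 ratios) is given: synchronized HeLa Kyoto cells (double thymidine block for G1/S, nocodazole release for mitosis), protein amounts in NP-40 versus SDS lysates quantified by mass spectrometry, three biological replicates.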
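Wherever solubility in G1/S (NP-40 vs SDS abundance) is given: HeLa Kyoto cells arrested at G1/S by double thymidine block, proteins quantified by TMT10plex mass spectrometry in mild NP-40 versus SDS extracts, three biological replicates.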
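Wherever thermal stability score vs G1/S (z-score of summed log2 fold changes over temperatures) is given: synchronized HeLa Kyoto cells, proteins quantified by TMT10plex mass spectrometry, three biological replicates, mitosis taken 0.5 h after nocodazole release, G1/S directly after double thymidine block.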

Sequence of STK38 (chain, as listed by the source): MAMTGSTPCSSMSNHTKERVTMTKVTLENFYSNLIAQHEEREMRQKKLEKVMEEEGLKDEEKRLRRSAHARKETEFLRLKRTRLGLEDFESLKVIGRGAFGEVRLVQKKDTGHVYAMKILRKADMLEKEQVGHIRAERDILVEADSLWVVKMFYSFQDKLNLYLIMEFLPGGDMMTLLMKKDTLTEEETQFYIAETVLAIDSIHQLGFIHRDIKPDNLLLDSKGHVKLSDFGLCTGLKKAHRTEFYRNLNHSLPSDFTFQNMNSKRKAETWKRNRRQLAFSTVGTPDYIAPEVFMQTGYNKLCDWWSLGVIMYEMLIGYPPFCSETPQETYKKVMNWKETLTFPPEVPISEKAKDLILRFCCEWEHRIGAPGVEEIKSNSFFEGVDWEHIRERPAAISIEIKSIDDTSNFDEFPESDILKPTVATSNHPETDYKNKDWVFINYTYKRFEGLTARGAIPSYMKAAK

Substance	solubility in G1/S (log2) (HeLa Kyoto [1])	melting temperature (HeLa Kyoto [2]; cell cycle stage: G1/S) [°C]	melting temperature (HeLa Kyoto [2]; cell cycle stage: mitosis) [°C]	solubility change mitosis (log2) (HeLa Kyoto [3])	thermal stability score (HeLa Kyoto [4]; [5])	thermal stability score (HeLa Kyoto [4]; cell cycle stage: mitosis)
MSSSNVEVFIPVSQGNTNGFPATASNDLKAFTEGAVLSFHNICYRVKLKSGFLPCRKPVEKEILSNINGIMKPGLNAILGPTGGGKSSLLDVLAARKDPSGLSGDVLINGAPRPANFKCNSGYVVQDDVVMGTLTVRENLQFSAALRLATTMTNHEKNERINRVIQELGLDKVADSKVGTQFIRGVSGGERKRTSIGMELITDPSILFLDEPTTGLDSSTANAVLLLLKRMSKQGRTIIFSIHQPRYSIFKLFDSLTLLASGRLMFHGPAQEALGYFESAGYHCEAYNNPADFFLDIINGDSTAVALNREEDFKATEIIEPSKQDKPLIEKLAEIYVNSSFYKETKAELHQLSGGEKKKKITVFKEISYTTSFCHQLRWVSKRSFKNLLGNPQASIAQIIVTVVLGLVIGAIYFGLKNDSTGIQNRAGVLFFLTTNQCFSSVSAVELFVVEKKLFIHEYISGYYRVSSYFLGKLLSDLLPMRMLPSIIFTCIVYFMLGLKPKADAFFVMMFTLMMVAYSASSMALAIAAGQSVVSVATLLMTICFVFMMIFSGLLVNLTTIASWLSWLQYFSIPRYGFTALQHNEFLGQNFCPGLNATGNNPCNYATCTGEEYLVKQGIDLSPWGLWKNHVALACMIVIFLTIAYLKLLFLKKYS [ABCG2]	-0.574	60.7	60.5	-0.0838	-1.15	-0.412
MEGLVVAAGGDVSLHNFSARLWEQLVHFHVMRLTDSLFLWVGATPHLRNLAVAMCSRYDSIPVSTSLLGDTSDTTSTGLAQRLARKTNKQVFVSYNLQNTDSNFALLVENRIKEEMEAFPEKF [PSMG4]	0.14	57.5	54.1	-0.0112	-0.165	-2.02
MSPPSPGRRREQRRPRAAATMATPLPGRAGGPATPLSPTRLSRLQEKEELRELNDRLAHYIDRVRALELENDRLLLKISEKEEVTTREVSGIKALYESELADARRVLDETARERARLQIEIGKLRAELDEVNKSAKKREGELTVAQGRVKDLESLFHRSEVELAAALSDKRGLESDVAELRAQLAKAEDGHAVAKKQLEKETLMRVDLENRCQSLQEELDFRKSVFEEEVRETRRRHERRLVEVDSSRQQEYDFKMAQALEELRSQHDEQVRLYKLELEQTYQAKLDSAKLSSDQNDKAASAAREELKEARMRLESLSYQLSGLQKQASAAEDRIRELEEAMAGERDKFRKMLDAKEQEMTEMRDVMQQQLAEYQELLDVKLALDMEINAYRKLLEGEEERLKLSPSPSSRVTVSRATSSSSGSLSATGRLGRSKRKRLEVEEPLGSGPSVLGTGTGGSGGFHLAQQASASGSVSIEEIDLEGKFVQLKNNSDKDQSLGNWRIKRQVLEGEEIAYKFTPKYILRAGQMVTVWAAGAGVAHSPPSTLVWKGQSSWGTGESFRTVLVNADGEEVAMRTVKKSSVMRENENGEEEEEEAEFGEEDLFHQQGDPRTTSRGCYVM [LMNB2]	-1.66	51.4	50.3	1.67	-7.21	-6.08
MAAVVAATRWWQLLLVLSAAGMGASGAPQPPNILLLLMDDMGWGDLGVYGEPSRETPNLDRMAAEGLLFPNFYSANPLCSPSRAALLTGRLPIRNGFYTTNAHARNAYTPQEIVGGIPDSEQLLPELLKKAGYVSKIVGKWHLGHRPQFHPLKHGFDEWFGSPNCHFGPYDNKARPNIPVYRDWEMVGRYYEEFPINLKTGEANLTQIYLQEALDFIKRQARHHPFFLYWAVDATHAPVYASKPFLGTSQRGRYGDAVREIDDSIGKILELLQDLHVADNTFVFFTSDNGAALISAPEQGGSNGPFLCGKQTTFEGGMREPALAWWPGHVTAGQVSHQLGSIMDLFTTSLALAGLTPPSDRAIDGLNLLPTLLQGRLMDRPIFYYRGDTLMAATLGQHKAHFWTWTNSWENFRQGIDFCPGQNVSGVTTHNLEDHTKLPLIFHLGRDPGERFPLSFASAEYQEALSRITSVVQQHQEALVPAQPQLNVCNWAVMNWAPPGCEKLGKCLTPPESIPKKCLWSH [GALNS]	0.789	55.5	57.8	-0.0581	-4.28	-1.14
MAAESGSDFQQRRRRRRDPEEPEKTELSERELAVAVAVSQENDEENEERWVGPLPVEATLAKKRKVLEFERVYLDNLPSASMYERSYMHRDVITHVVCTKTDFIITASHDGHVKFWKKIEEGIEFVKHFRSHLGVIESIAVSSEGALFCSVGDDKAMKVFDVVNFDMINMLKLGYFPGQCEWIYCPGDAISSVAASEKSTGKIFIYDGRGDNQPLHIFDKLHTSPLTQIRLNPVYKAVVSSDKSGMIEYWTGPPHEYKFPKNVNWEYKTDTDLYEFAKCKAYPTSVCFSPDGKKIATIGSDRKVRIFRFVTGKLMRVFDESLSMFTELQQMRQQLPDMEFGRRMAVERELEKVDAVRLINIVFDETGHFVLYGTMLGIKVINVETNRCVRILGKQENIRVMQLALFQGIAKKHRAATTIEMKASENPVLQNIQADPTIVCTSFKKNRFYMFTKREPEDTKSADSDRDVFNEKPSKEEVMAATQAEGPKRVSDSAIIHTSMGDIHTKLFPVECPKTVENFCVHSRNGYYNGHTFHRIIKGFMIQTGDPTGTGMGGESIWGGEFEDEFHSTLRHDRPYTLSMANAGSNTNGSQFFITVVPTPWLDNKHTVFGRVTKGMEVVQRISNVKVNPKTDKPYEDVSIINITVK [PPWD1]	-0.381	49.7	49.8	-0.0306	0.382	0.58
MALAARLWRLLPFRRGAAPGSRLPAGTSGSRGHCGPCRFRGFEVMGNPGTFKRGLLLSALSYLGFETYQVISQAAVVHATAKVEEILEQADYLYESGETEKLYQLLTQYKESEDAELLWRLARASRDVAQLSRTSEEEKKLLVYEALEYAKRALEKNESSFASHKWYAICLSDVGDYEGIKAKIANAYIIKEHFEKAIELNPKDATSIHLMGIWCYTFAEMPWYQRRIAKMLFATPPSSTYEKALGYFHRAEQVDPNFYSKNLLLLGKTYLKLHNKKLAAFWLMKAKDYPAHTEEDKQIQTEAAQLLTSFSEKN [RMDN1]	0.16	52	52.9	0.0519	-0.229	-1.17
MARGERRRRAVPAEGVRTAERAARGGPGRRDGRGGGPRSTAGGVALAVVVLSLALGMSGRWVLAWYRARRAVTLHSAPPVLPADSSSPAVAPDLFWGTYRPHVYFGMKTRSPKPLLTGLMWAQQGTTPGTPKLRHTCEQGDGVGPYGWEFHDGLSFGRQHIQDGALRLTTEFVKRPGGQHGGDWSWRVTVEPQDSGTSALPLVSLFFYVVTDGKEVLLPEVGAKGQLKFISGHTSELGDFRFTLLPPTSPGDTAPKYGSYNVFWTSNPGLPLLTEMVKSRLNSWFQHRPPGAPPERYLGLPGSLKWEDRGPSGQGQGQFLIQQVTLKIPISIEFVFESGSAQAGGNQALPRLAGSLLTQALESHAEGFRERFEKTFQLKEKGLSSGEQVLGQAALSGLLGGIGYFYGQGLVLPDIGVEGSEQKVDPALFPPVPLFTAVPSRSFFPRGFLWDEGFHQLVVQRWDPSLTREALGHWLGLLNADGWIGREQILGDEARARVPPEFLVQRAVHANPPTLLLPVAHMLEVGDPDDLAFLRKALPRLHAWFSWLHQSQAGPLPLSYRWRGRDPALPTLLNPKTLPSGLDDYPRASHPSVTERHLDLRCWVALGARVLTRLAEHLGEAEVAAELGPLAASLEAAESLDELHWAPELGVFADFGNHTKAVQLKPRPPQGLVRVVGRPQPQLQYVDALGYVSLFPLLLRLLDPTSSRLGPLLDILADSRHLWSPFGLRSLAASSSFYGQRNSEHDPPYWRGAVWLNVNYLALGALHHYGHLEGPHQARAAKLHGELRANVVGNVWRQYQATGFLWEQYSDRDGRGMGCRPFHGWTSLVLLAMAEDY [MOGS]	-0.0875	52.9	52.8	-0.0215	3.25	3.97
DOCK7	-0.219	48.2	49	-0.188	0.562	1.42
CTSC	0.136	56.8	59	-0.0557	5.96	4.92
MSRRLLPRAEKRRRRLEQRQQPDEQRRRSGAMVKMAAAGGGGGGGRYYGGGSEGGRAPKRLKTDNAGDQHGGGGGGGGGAGAAGGGGGGENYDDPHKTPASPVVHIRGLIDGVVEADLVEALQEFGPISYVVVMPKKRQALVEFEDVLGACNAVNYAADNQIYIAGHPAFVNYSTSQKISRPGDSDDSRSVNSVLLFTILNPIYSITTDVLYTICNPCGPVQRIVIFRKNGVQAMVEFDSVQSAQRAKASLNGADIYSGCCTLKIEYAKPTRLNVFKNDQDTWDYTNPNLSGQGDPGSNPNKRQRQPPLLGDHPAEYGGPHGGYHSHYHDEGYGPPPPHYEGRRMGPPVGGHRRGPSRYGPQYGHPPPPPPPPEYGPHADSPVLMVYGLDQSKMNCDRVFNVFCLYGNVEKVKFMKSKPGAAMVEMADGYAVDRAITHLNNNFMFGQKLNVCVSKQPAIMPGQSYGLEDGSCSYKDFSESRNNRFSTPEQAAKNRIQHPSNVLHFFNAPLEVTEENFFEICDELGVKRPSSVKVFSGKSERSSSGLLEWESKSDALETLGFLNHYQMKNPNGPYPYTLKLCFSTAQHAS [HNRNPL]	-0.26	46.4	48.1	0.228	5.28	10.5
HUWE1	-0.226	52	51.4	-0.136	0.946	0.312
STK38	-0.0452	48.3	49.1	-0.159	0.464	1.32
MLVPLAKLSCLAYQCFHALKIKKNYLPLCATRWSSTSTVPRITTHYTIYPRDKDKRWEGVNMERFAEEADVVIVGAGPAGLSAAVRLKQLAVAHEKDIRVCLVEKAAQIGAHTLSGACLDPGAFKELFPDWKEKGAPLNTPVTEDRFGILTEKYRIPVPILPGLPMNNHGNYIVRLGHLVSWMGEQAEALGVEVYPGYAAAEVLFHDDGSVKGIATNDVGIQKDGAPKATFERGLELHAKVTIFAEGCHGHLAKQLYKKFDLRANCEPQTYGIGLKELWVIDEKNWKPGRVDHTVGWPLDRHTYGGSFLYHLNEGEPLVALGLVVGLDYQNPYLSPFREFQRWKHHPSIRPTLEGGKRIAYGARALNEGGFQSIPKLTFPGGLLIGCSPGFMNVPKIKGTHTAMKSGILAAESIFNQLTSENLQSKTIGLHVTEYEDNLKNSWVWKELYSVRNIRPSCHGVLGVYGGMIYTGIFYWILRGMEPWTLKHKGSDFERLKPAKDCTPIEYPKPDGQISFDLLSSVALSGTNHEHDQPAHLTLRDDSIPVNRNLSIYDGPEQRFCPAGVYEFVPVEQGDGFRLQINAQNCVHCKTCDIKDPSQNINWVVPEGGGGPAYNGM [ETFDH]	0.107	54.4	53.8	-0.184	-0.885	-1.65
MAAQKDQQKDAEAEGLSGTTLLPKLIPSGAGREWLERRRATIRPWSTFVDQQRFSRPRNLGELCQRLVRNVEYYQSNYVFVFLGLILYCVVTSPMLLVALAVFFGACYILYLRTLESKLVLFGREVSPAHQYALAGGISFPFFWLAGAGSAVFWVLGATLVVIGSHAAFHQIEAVDGEELQMEPV [RABAC1]	-0.392	59.6	58.3	-0.0714	-0.0851	-0.547
MASSRASSTQATKTKAPDDLVAPVVKKPHIYYGSLEEKERERLAKGESGILGKDGLKAGIEAGNINITSGEVFEIEEHISERQAEVLAEFERRKRARQINVSTDDSEVKACLRALGEPITLFGEGPAERRERLRNILSVVGTDALKKTKKDDEKSKKSKEEYQQTWYHEGPNSLKVARLWIANYSLPRAMKRLEEARLHKEIPETTRTSQMQELHKSLRSLNNFCSQIGDDRPISYCHFSPNSKMLATACWSGLCKLWSVPDCNLLHTLRGHNTNVGAIVFHPKSTVSLDPKDVNLASCAADGSVKLWSLDSDEPVADIEGHTVRVARVMWHPSGRFLGTTCYDRSWRLWDLEAQEEILHQEGHSMGVYDIAFHQDGSLAGTGGLDAFGRVWDLRTGRCIMFLEGHLKEIYGINFSPNGYHIATGSGDNTCKVWDLRQRRCVYTIPAHQNLVTGVKFEPIHGNFLLTGAYDNTAKIWTHPGWSPLKTLAGHEGKVMGLDISSDGQLIATCSYDRTFKLWMAE [PRPF4]	-0.454	49.9	49.5	0.223	-0.546	-0.96
LAMA1	-0.219	51.7	52.9	0.051	5.02	10
